Laboratory results as given in patent US20020081293A1.

Experiments:
[1] = target: human factor D purified from human serum (human) (UniProt P00746); assay: SPR (BIAcore), factor D amine-coupled to the chip, MAb 166-32 as analyte
[2] = target: human factor D purified from human serum (human) (UniProt P00746); assay: cell-based or functional assay
[3] = target: dog factor D (in serum) (dog); assay: cell-based or functional assay; conditions: scale: times less effective than on human factor D
[4] = target: human factor D purified from human serum (human) (UniProt P00746); assay: SPR (BIAcore), MAb captured by rabbit anti-mouse IgG, factor D as analyte

UniProt P00746, sequence (P00746 26-253): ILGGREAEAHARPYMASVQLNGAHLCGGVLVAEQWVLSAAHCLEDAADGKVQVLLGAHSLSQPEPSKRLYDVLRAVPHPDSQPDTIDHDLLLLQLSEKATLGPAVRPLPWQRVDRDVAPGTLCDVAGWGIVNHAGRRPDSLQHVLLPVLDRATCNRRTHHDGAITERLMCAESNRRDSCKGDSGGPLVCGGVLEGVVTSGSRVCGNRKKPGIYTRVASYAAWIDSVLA

Kd [1]: 0.16 nM
koff [1]: 7.6e-05 s⁻¹
kon [1]: 460000 M⁻¹ s⁻¹
molar ratio for complete inhibition of alternative complement activity in extracorporeal circuit plasma (18 µg/ml MAb) (molar ratio (MAb : factor D)) [2]: 1.5
Kd [4]: < 0.1 nM
koff [4]: 0.00011 s⁻¹
kon [4]: > 1e+06 M⁻¹ s⁻¹
Substance: monoclonal antibody 166-32
inhibition of factor D dependent hemolysis of unsensitized rabbit RBCs (factor D depleted human serum with 0.1 µg/ml supplemented factor D) [2]: 0.3 µg/mL
molar ratio for inhibition of factor D dependent hemolysis (molar ratio (MAb 166-32 to factor D)) [2]: 0.5
neutralization of dog factor D in hemolytic assays, against human factor D [3]: 10
